According to article PMC3071809, “Recombinant Complement Receptor 2 Radiolabeled with [^99mTc(CO)3]^+ : A Potential New Radiopharmaceutical for Imaging Activated Complement” (PLoS ONE, 2011):

Tests used:
[1] = target: T1, human C3d protein (Merck) (human, UniProt P01024 1002-1303); experiment: ELISA; C3d coated at two fold concentrations from 1.5 to 1500 nM/well in PBS pH 7.4; rCR2 or C2A at a fixed 1.5 µM in 0.05% BSA-PBS pH 7.4, 1 h, room temperature; detected with anti-His antibody; settings: both partners purified
T1 construct: C3d fragment of complement C3, human; also called C3d antigen; immobilized C3d; source: bought: Merck, Darmstadt, Germany
T1 sequence (P01024 1002-1303): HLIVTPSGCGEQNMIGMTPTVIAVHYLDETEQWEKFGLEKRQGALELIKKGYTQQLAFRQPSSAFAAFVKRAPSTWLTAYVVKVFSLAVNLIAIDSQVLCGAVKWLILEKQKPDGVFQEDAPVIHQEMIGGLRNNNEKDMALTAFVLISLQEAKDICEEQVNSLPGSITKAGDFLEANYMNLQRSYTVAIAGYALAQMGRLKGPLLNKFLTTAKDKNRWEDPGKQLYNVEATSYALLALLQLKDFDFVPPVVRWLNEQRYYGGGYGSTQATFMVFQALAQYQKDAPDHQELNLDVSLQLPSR

[2] = target: C3d construct with a free exposed thiol (Cys17, corresponding to Cys1010 of full length C3) (human); experiment: SPR; Biacore T100, 25°C; C3d immobilised on a CM5 chip by thiol coupling of the free Cys17; rCR2 as analyte; 0.01 M HEPES pH 7.4, 0.15 M NaCl, 3 mM EDTA, 0.005% Tween 20; equilibrium analysis, Langmuir isotherm
[3] = target: T1, human C3d protein (Merck); experiment: radioligand binding; radioactive ELISA: C3d coated on 12 well strips at increasing two fold concentrations, ^99mTc-rCR2 added, wells gamma counted; one site specific binding model Y = Bmax*X/(Kd+X); settings: both partners purified

Row | EC50 [1] [nM] | Kd [2] [nM] | stoichiometry N [2] | Kd [3] [nM] | Binder
1 | ~48.5 | 570 | 1 | – | recombinant Complement Receptor 2 (rCR2), Short Consensus Repeats 1 and 2 of human CR2 with the C-terminal sequence … (domain or fragment, UniProt P20023 21-154, looked up, complement receptor type 2 (CR2, CD21), human, residues 21-154: SCR1, SCR2 and the SCR2 to SCR3 linker VFPLEC; 15.5 kDa; cloned in pET-24a (NdeI/EcoRI); also called recombinant CR2; SCR1/2 fragment; not shown: His6, C-terminal, kept) ISCGSPPPILNGRISYYSTPIAVGTVIRYSCSGTFRLIGEKSLLCITKDKVDGTWDKPAPKCEYFNKYSSCPEPIVPGGYKIRGSTPYRHGDSVTFACKTNFSMNGNKSVWCQANNMWGPTRLPTCVSVFPLEC
2 | – | – | – | 25.5 | ^99mTc-rCR2 (rCR2 radiolabeled with [^99mTc(CO)3]^+ on the His-tag) (domain or fragment, human, UniProt P20023 21-154, looked up, [^99mTc(CO)3]^+ on the C-terminal His-tag, complement receptor type 2 (CR2), human, residues 21-154, as m1; m1 with the radiolabel; also called rCR2-Tc^99m; rCR2-[^99mTc(CO)3]; source: labeled with [^99mTc(CO)3(OH2)3]^+ at 37°C; not shown: His6, C-terminal, kept) ISCGSPPPILNGRISYYSTPIAVGTVIRYSCSGTFRLIGEKSLLCITKDKVDGTWDKPAPKCEYFNKYSSCPEPIVPGGYKIRGSTPYRHGDSVTFACKTNFSMNGNKSVWCQANNMWGPTRLPTCVSVFPLEC
